# Test results: patent US20140157444A1 (COUNCIL OF SCIENTIFIC AND INDUSTRIAL RESEARCH, published 2014)
# What was measured:
# mHDAC2-FLAG = target: T1, mHDAC2-FLAG (mouse, UniProt P70288 1-488); experiment: co-immunoprecipitation from co-transfected HEK 293 cells: anti-FLAG IP, anti-Myc blot
# T1 construct: Species is read from the prefix 'm' of the plasmid name; also called pCMX-mHDAC2-FLAG; not shown: FLAG tag
# Excerpt: (§1) FIG. 10. Identification of proteins interacting with WDR13. […] B) Immunolocalization of WDR13 protein in HELA cells transfected with pCMV-FLAG-Wdr13 (SEQ ID NO: 3) vector using anti FLAG antibody. C) Silver stained gel of immunoprecipitated proteins using anti FLAG antibody from HELA cells transfected with pCMV-FLAG control and pCMV-FLAG-Wdr13 vectors having SEQ ID NO: 3.
# (§2) FIG. 11. Interactions of WDR13 with ERs, HDACs and PHIP1 A) HEK 293 cells were co-transfected with FLAG-Wdr13 (from the position 922 to 2443 in SEQ ID NO: 3) and GFP-ERα, grown in the presence or absence of estradiol. The cell lysate was immunoprecipitated with anti FLAG antibody and immunoblotted with anti GFP antibody. […] B) HEK 293 cells were co-transfected with FLAG-Wdr13 (from the position 922 to 2443 in SEQ ID NO: 3) and Myc-ERβ I (from the position 900-2673 in SEQ ID NO: 6), grown in the presence or absence of estradiol. The cell lysate was immunoprecipitated with anti FLAG antibody and immunoblotted with anti Myc antibody. […] C) HEK 293 cells were co-transfected with Myc-Wdr13 (from the position 900 to 2448 in SEQ ID NO: 4)/various FLAG-HDACs and the cell lysate was immunoprecipitated with anti FLAG antibody and immunoblotted with anti Myc antibody.
# hHDAC4-FLAG = target: T2, hHDAC4-FLAG (human, UniProt P56524 1-1084, limits assumed); experiment: as above
# T2 construct: Species is read from the prefix 'h' of the plasmid name; also called pCMX-hHDAC4-FLAG; not shown: FLAG tag
# Excerpt: as §1, §2
# T2 sequence (P56524 whole entry): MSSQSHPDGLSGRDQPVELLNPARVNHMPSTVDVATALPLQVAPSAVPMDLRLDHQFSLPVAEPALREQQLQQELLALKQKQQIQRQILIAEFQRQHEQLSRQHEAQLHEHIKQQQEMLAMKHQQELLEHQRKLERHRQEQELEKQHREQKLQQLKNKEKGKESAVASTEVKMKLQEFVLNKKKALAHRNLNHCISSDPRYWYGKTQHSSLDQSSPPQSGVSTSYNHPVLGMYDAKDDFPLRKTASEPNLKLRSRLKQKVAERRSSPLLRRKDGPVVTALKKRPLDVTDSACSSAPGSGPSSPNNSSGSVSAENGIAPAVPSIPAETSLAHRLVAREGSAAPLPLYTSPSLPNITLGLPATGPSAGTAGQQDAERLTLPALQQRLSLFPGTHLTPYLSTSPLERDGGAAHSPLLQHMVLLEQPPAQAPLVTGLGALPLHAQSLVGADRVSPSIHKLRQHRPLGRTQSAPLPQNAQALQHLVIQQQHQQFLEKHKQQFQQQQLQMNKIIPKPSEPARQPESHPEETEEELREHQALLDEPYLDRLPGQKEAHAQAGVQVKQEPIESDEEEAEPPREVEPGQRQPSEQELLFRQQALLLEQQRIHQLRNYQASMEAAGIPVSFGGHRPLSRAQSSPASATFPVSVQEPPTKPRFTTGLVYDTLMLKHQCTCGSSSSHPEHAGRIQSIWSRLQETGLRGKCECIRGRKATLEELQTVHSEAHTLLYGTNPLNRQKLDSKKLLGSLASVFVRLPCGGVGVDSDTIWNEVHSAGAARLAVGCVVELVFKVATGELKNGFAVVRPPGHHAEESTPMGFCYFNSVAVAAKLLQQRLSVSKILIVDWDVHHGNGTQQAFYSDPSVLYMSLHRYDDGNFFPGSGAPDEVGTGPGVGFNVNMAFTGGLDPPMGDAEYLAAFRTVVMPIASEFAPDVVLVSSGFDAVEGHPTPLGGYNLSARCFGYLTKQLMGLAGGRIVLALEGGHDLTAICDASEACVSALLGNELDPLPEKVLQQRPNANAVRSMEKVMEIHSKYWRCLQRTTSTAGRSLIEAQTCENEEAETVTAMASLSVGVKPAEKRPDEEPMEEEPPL
# T1 sequence (P70288 whole entry): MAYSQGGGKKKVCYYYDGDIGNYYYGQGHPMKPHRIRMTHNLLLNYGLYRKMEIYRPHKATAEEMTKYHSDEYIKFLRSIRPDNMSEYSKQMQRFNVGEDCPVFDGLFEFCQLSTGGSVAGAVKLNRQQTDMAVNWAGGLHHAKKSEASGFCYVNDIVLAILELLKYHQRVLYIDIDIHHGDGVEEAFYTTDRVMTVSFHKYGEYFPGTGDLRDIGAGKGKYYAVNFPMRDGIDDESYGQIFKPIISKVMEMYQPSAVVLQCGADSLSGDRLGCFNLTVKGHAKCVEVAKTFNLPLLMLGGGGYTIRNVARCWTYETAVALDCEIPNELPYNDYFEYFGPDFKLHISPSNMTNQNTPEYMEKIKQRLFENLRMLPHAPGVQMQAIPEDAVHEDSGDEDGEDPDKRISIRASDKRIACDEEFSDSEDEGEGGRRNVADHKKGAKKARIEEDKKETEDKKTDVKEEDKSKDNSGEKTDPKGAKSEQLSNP
binder,measurement,setting,value
"Myc WDR13 fusion protein (other, mouse, UniProt Q91V09 1-485, looked up, Overexpressed in HEK 293 cells; (mouse gene); also called pCMV-Myc-Wdr13; not shown: Myc peptide at the N-terminus, from the pCMV-Myc vector) MAAVWQQVLAVDARYNAYRTPTFPQFRTQYIRRRSQLLRENAKAGHPPALRRQYLRLRGQLLGQRYGPLSEPGSARAYSNSIVRSSRTTLDRMEDFEDDPRALGARGHRRSVSRGSYQLQAQMNRAVYEDRPPGSVVPTSVAEASRAMAGDTSLSENYAFAGMYHVFDQHVDEAVPRVRFANDDRHRLACCSLDGSISLCQLVPAPPTVLHVLRGHTRGVSDFAWSLSNDILVSTSLDATMRIWASEDGRCIREIPDPDGAELLCCTFQPVNNNLTVVGNAKHNVHVMNISTGKKVKGGSSKLTGRVLALSFDAPGRLLWAGDDRGSVFSFLFDMATGKLTKAKRLVVHEGSPVTSISARSWVSREARDPSLLINACLNKLLLYRVVDNEGALQLKRSFPIEQSSHPVRSIFCPLMSFRQGACVVTGSEDMCVHFFDVERAAKAAVNKLQGHSAPVLDVSFNCDESLLASSDASGMVIVWRREQK",binding result,mHDAC2-FLAG,no binding
same,binding result,hHDAC4-FLAG,no binding
